Results as given in publication PMC12796354.
“And” between values parts separate entries of the source, which are not always exact repeats. Identical values can stand only once.

Legend:
[1] = target: baseplate center piece protein (gp114) of phage 7-7-1 (Agrobacterium phage 7-7-1); assay: cryo-EM structure; single particle analysis of purified virions; baseplate region, local refinements: baseplate core complex C6 3.4 Å, tail fibers C1 3.5 Å
[2] = target: major capsid protein (gp003) of phage 7-7-1 (Agrobacterium phage 7-7-1); assay: cryo-EM structure; single particle analysis of purified virions in TM buffer (10 mM MgSO4, 20 mM Tris/HCl, pH 7.5); DNA-filled capsid, icosahedral symmetry, 3.4 Å
[3] = target: baseplate wedge 2 (gp110) of phage 7-7-1 (Agrobacterium phage 7-7-1); assay: cryo-EM structure; single particle analysis of purified virions; baseplate region, local refinements: baseplate core complex C6 3.4 Å, tail fibers C1 3.5 Å
[4] = target: portal protein (gp005) of phage 7-7-1 (Agrobacterium phage 7-7-1); assay: cryo-EM structure; single particle analysis of purified virions; neck region, local refinements: portal C12 3.2 Å, collar C15 3.3 Å, neck 1 C3 3.5 Å, neck 2 + tail terminator + tail sheath + tail tube C6 3.6 Å
[5] = target: decoration protein (gp002) of phage 7-7-1 (Agrobacterium phage 7-7-1); assay: cryo-EM structure; single particle analysis of purified virions in TM buffer (10 mM MgSO4, 20 mM Tris/HCl, pH 7.5); DNA-filled capsid, icosahedral symmetry, 3.4 Å
[6] = target: central spike protein (gp112) of phage 7-7-1 (Agrobacterium phage 7-7-1); assay: cryo-EM structure; single particle analysis of purified virions; baseplate region, local refinements: baseplate core complex C6 3.4 Å, tail fibers C1 3.5 Å
[7] = target: garland protein (gp014) of phage 7-7-1 (Agrobacterium phage 7-7-1); assay: as above
[8] = target: short tail fiber (gp008) of phage 7-7-1 (Agrobacterium phage 7-7-1); assay: as above
[9] = target: tail tube protein (gp127) of phage 7-7-1 (Agrobacterium phage 7-7-1); assay: cryo-EM structure; single particle analysis of purified virions; neck region, local refinements: portal C12 3.2 Å, collar C15 3.3 Å, neck 1 C3 3.5 Å, neck 2 + tail terminator + tail sheath + tail tube C6 3.6 Å
[10] = target: tail tube protein (gp127) of phage 7-7-1 (Agrobacterium phage 7-7-1); assay: cryo-EM structure; single particle analysis of purified virions; extended tail, C6 helical refinement, twist 27.35°, rise 35.25 Å, 3.1 Å
[11] = target: neck 1 protein (gp119) of phage 7-7-1 (Agrobacterium phage 7-7-1); assay: cryo-EM structure; single particle analysis of purified virions; neck region, local refinements: portal C12 3.2 Å, collar C15 3.3 Å, neck 1 C3 3.5 Å, neck 2 + tail terminator + tail sheath + tail tube C6 3.6 Å
[12] = target: neck 2 protein (gp121) of phage 7-7-1 (Agrobacterium phage 7-7-1); assay: as above
[13] = target: tail terminator protein (gp124) of phage 7-7-1 (Agrobacterium phage 7-7-1); assay: as above
[14] = target: baseplate central hub protein (gp113) of phage 7-7-1 (Agrobacterium phage 7-7-1); assay: cryo-EM structure; single particle analysis of purified virions; baseplate region, local refinements: baseplate core complex C6 3.4 Å, tail fibers C1 3.5 Å
[15] = target: long tail fiber (gp015) of phage 7-7-1 (Agrobacterium phage 7-7-1); assay: as above
[16] = target: baseplate wedge 1 (gp111) of phage 7-7-1 (Agrobacterium phage 7-7-1); assay: as above

baseplate center piece protein (gp114) of phage 7-7-1 (natural protein)
stoichiometry N [1]: 6

major capsid protein (gp003) of phage 7-7-1 (natural protein)
stoichiometry N [2]: 6 and 5

baseplate wedge 2 (gp110) of phage 7-7-1 (natural protein)
stoichiometry N [3]: 2

portal protein (gp005) of phage 7-7-1 (natural protein)
stoichiometry N [4]: 12

decoration protein (gp002) of phage 7-7-1 (natural protein)
stoichiometry N [5]: 2

central spike protein (gp112) of phage 7-7-1 (natural protein)
stoichiometry N [6]: 3

garland protein (gp014) of phage 7-7-1 (natural protein)
stoichiometry N [7]: 2

short tail fiber (gp008) of phage 7-7-1 (natural protein)
stoichiometry N [8]: 3

tail tube protein (gp127) of phage 7-7-1 (natural protein)
stoichiometry N [9]: 6 | stoichiometry N [10]: 6

neck 1 protein (gp119) of phage 7-7-1 (natural protein)
stoichiometry N [11]: 12

neck 2 protein (gp121) of phage 7-7-1 (natural protein)
stoichiometry N [12]: 6

tail terminator protein (gp124) of phage 7-7-1 (natural protein)
stoichiometry N [13]: 6

baseplate central hub protein (gp113) of phage 7-7-1 (natural protein)
stoichiometry N [14]: 3

long tail fiber (gp015) of phage 7-7-1 (natural protein)
stoichiometry N [15]: 3

baseplate wedge 1 (gp111) of phage 7-7-1 (natural protein)
stoichiometry N [16]: 6
